Source: patent US6649364

Assays:
[1] = target: DNase I (Sigma, St. Louis, Mo.)
[2] = target: α-actin purified from rabbit skeletal muscle, globular (G-actin) form, P68135

B1: highly purified human recombinant ICE (p20/p10) (Merck) (protein)
chain 1: NPAMPTSSGSEGNVKLCSLEEAQRIWKQKSAEIYPIMDKSSRTRLALIICNEEFDSIPRRTGAEVDITGMTMLLQNLGYSVDVKKNLTASDMTTELEAFAHRPEHKTSDSTFLVFMSHGIREGICGKKHSEQVPDILQLNAIFNMLNTKNCPSLKDKPKVIIIQACRGDSPGVVWFKD
chain 2: AIKKAHIEKDFIAFCSSTPDNVSWRHPTMGSVFIGRLIEHMQEYACSCDVEEIFRKVRFSFEQPDGRAQMPTTERVTLTRCFYLFPGH
[1]
  cleavage of DNase I and its endonuclease activity: Control incubations without actin demonstrated that ICE neither cleaved DNase I nor affected its endonuclease activity
[2]
  cleavage of purified actin (SDS-polyacrylamide gel electrophoresis): In the presence of ICE, actin was cleaved, resulting in a disappearance of the 42 kd band, and the appearance of bands at approximately 41 kd, 30 kd, and 14 kd
